Data reported in KR20230039786A (dated 2023).
Numbering of substitutions follows the chain as printed.

Biological target: SARS-CoV NP antigen (Sino Biological) (SARS-CoV, UniProt P59595 1-422)
Experiment: indirect ELISA, SARS-CoV NP coated, anti-mouse IgG-HRP

Sequence of SARS-CoV NP antigen (Sino Biological) (P59595 whole entry): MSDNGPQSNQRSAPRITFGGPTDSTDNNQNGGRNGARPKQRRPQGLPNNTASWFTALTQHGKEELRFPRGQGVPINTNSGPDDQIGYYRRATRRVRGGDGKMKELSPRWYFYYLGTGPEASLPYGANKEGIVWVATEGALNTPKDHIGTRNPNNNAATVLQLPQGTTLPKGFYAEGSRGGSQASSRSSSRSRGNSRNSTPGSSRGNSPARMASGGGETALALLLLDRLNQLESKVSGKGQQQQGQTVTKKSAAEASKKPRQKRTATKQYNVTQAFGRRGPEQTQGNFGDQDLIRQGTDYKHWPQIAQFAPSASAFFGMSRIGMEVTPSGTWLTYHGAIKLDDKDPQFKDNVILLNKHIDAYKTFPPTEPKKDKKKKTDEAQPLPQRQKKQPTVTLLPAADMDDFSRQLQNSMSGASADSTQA

B1: 3E10 anti-NP monoclonal antibody (antibody, V domains shown)
VH: EVQLEQSGPELVRPGVSVKISCKGSGYTFTDYAMHWVKQSHAKSLEWIGVISTYSGNTSYNQKFKGKATMTVDKSSSTAYMELARLTAEDSAIYYCANGGNYGFDYWGQGTTLTVSS
VL: DIVLTQSPKFMSTSVGDRVSITCKASQDVGTAVAWYQQKPGQSPRLLIYWTSTRHTGVPDRFTGSGSGTDFTLTISNVQSEDLADYFCQQYSSYPLTFGGGTKLEIK
EC50: 2 ng/mL

B2: 5B6.8 anti-NP monoclonal antibody (antibody, V domains shown)
VH: B1 VH with E1Q, E5Q, Q6E
VL: DIVITQSPKFMSTSVGDRVSITCEASQDVTTAVAWYQQKPGQSPKLLIYSASYRFTGVPDRFTGSGSGTDFTFTISSVQAEDLAVYYCQQHYSSPLTFGAGTKLELK
EC50: 1320 ng/mL

B3: 5B6 anti-NP monoclonal antibody (antibody, V domains shown)
VH: QVQLQESGPELKKPGETVKISCTASGYTFANYGMNWVKQAPGKGLKWMGWINTYTGETTYADDFKGRFAFSLETSASTASLQINKLKNEDTATYFCTRSVLLRSYFDYGGQGTTLTVSS
VL: B2 VL with I4M, T56A
EC50: 4 ng/mL

B4: 3F10 anti-NP monoclonal antibody (antibody, V domains shown)
VH: EVQLEESGPELKKPGETVKISCKASGYTFTDYSMHWVKQAPGKGLKWMGWINTETGEPTYADDFKGRFAFSLETSASTASLQINNLKNEDTATYFCGSGSRYSWYFDVWGAGTTVTVSS
VL: DIVLTQSPKFMSTSLGDRVSVTCKASQSVGTNVAWFQQNSGQSPKALIYSASYRYSGVPDRFTGSGSGTDFTLTISNVKSEDLAEYFCQQYNSYPLAFGGGTKVEIK
EC50: 10 ng/mL
